From PMC7343536 (Cell, 2017)
Read-outs that look alike come from different tables or passages of the source. No end group written: not given here.

Legend:
[1] = target: T1, Ssb2 (purified recombinant) (S. cerevisiae, UniProt P40150 1-613); assay: stopped-flow fluorescence, peptide release
[2] = target: T1, Ssb2 (purified recombinant); assay: stopped-flow fluorescence, peptide release; remark: listed apart in the source

T1 sequence (P40150 whole entry): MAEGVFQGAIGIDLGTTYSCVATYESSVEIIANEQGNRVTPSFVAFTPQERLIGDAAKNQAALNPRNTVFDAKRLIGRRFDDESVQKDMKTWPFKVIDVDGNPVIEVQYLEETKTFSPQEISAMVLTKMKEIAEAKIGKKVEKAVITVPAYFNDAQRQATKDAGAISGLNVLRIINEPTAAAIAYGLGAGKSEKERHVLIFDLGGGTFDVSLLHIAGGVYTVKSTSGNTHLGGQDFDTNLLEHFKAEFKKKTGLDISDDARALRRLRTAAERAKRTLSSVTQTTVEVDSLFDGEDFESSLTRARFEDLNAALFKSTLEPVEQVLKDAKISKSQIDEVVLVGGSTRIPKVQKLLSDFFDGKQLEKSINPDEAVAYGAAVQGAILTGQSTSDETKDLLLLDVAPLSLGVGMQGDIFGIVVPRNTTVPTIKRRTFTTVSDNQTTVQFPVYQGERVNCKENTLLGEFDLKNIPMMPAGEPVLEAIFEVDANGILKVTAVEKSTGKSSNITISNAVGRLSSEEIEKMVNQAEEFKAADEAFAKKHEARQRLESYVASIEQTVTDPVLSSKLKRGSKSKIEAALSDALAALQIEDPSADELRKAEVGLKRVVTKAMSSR

With QRKLFFNLRKTKQC (not fully specified (residue 14); also: labeled with IAANS, site not given here) [IAANS labeled peptide substrate σ32-Q132-Q144-C] as the binder, how does the “half-life of the complex” value [1] read?
Its value is 7.7 ± 6.7 min.

What about the “half-life of the complex” value [2] of the same binder?
The value was 3.9 ± 0.2 h.
